From article PMC3790820, “A Rapid and High-Throughput Quantitation Assay of the Nuclear Factor κB Activity Using Fluorescence Correlation Spectroscopy in the Setting of Clinical Laboratories”

How the values were obtained:
NF-kB p50 (hr-p50) [1] = biological target: T1, NF-kB p50 (hr-p50) (human (recombinant), UniProt P19838 1-433); test: competition (FCS); little effect at 1 and 50 nM competitor; TAMRA probe N1; 50 mM Tris-HCl pH 7.5, 250 mM NaCl, 1 mM EDTA, 2.5 mM DTT, 10% glycerol, 1 nM TAMRA probe, 1 ug poly(dI-dC), room temperature, 10 min; conditions: protein: commercial; chain copies: 2; hairpin, 21 bp stem, AAAA loop
NF-kB p50 (hr-p50) [2] = biological target: T1, NF-kB p50 (hr-p50); test: competition (FCS); 868.0 us at 1 nM, 495.8 us at 50 nM competitor; TAMRA probe N1; 50 mM Tris-HCl pH 7.5, 250 mM NaCl, 1 mM EDTA, 2.5 mM DTT, 10% glycerol, 1 nM TAMRA probe, 1 ug poly(dI-dC), room temperature, 10 min; conditions: protein: commercial; chain copies: 2; hairpin, 22 bp stem, AAAA loop

T1 sequence (P19838 1-433): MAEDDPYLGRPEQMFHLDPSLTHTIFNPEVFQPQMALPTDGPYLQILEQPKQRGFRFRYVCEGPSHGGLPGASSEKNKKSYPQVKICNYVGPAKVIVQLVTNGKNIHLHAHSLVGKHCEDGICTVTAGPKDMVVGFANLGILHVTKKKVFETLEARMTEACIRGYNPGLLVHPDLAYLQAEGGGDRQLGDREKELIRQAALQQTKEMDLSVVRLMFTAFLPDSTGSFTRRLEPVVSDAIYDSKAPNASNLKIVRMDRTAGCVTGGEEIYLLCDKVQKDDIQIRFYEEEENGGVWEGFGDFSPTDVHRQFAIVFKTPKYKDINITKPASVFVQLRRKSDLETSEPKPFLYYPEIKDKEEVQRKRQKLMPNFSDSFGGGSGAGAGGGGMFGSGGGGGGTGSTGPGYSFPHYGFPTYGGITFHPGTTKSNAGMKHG

| Binder | binding result (NF-kB p50 (hr-p50) [1]) | binding result (NF-kB p50 (hr-p50) [2]) |
| --- | --- | --- |
| CAGGCGCGTTTTGACCATCTTAAAAAAGATGGTCAAAACGCGCCTG (structured_DNA) [nonspecific competitor stem-loop] | no binding | – |
| AGTTGAGGGGACTTTCCCAGGCAAAAGCCTGGGAAAGTCCCCTCAACT (structured_DNA) [wild-type competitor stem-loop] | – | binds |
